B1: GNAI1 (parent)
chain: WIHCFEGVTAIIFCVALSDYDLVL

Variants of: B1
Experiment: protein stability index of a GFP-peptide fusion (GPS, HEK-293T) (PSI 1-6); higher = more stable
Conditions: c terminus: a fixed tail appended
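Further: lentivirally expressed fusions sorted by FACS into six bins by GFP to DsRed ratio, PSI derived from sequencing read proportions per bin multiplied by bin number.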

Variant	protein stability index
T9R	2.51
T9I	4.15
T9W	3.23
T9C	2.57
T9A	2.01
T9Y	2.83
T9G	2.84
T9D	3.05
T9F	3.82
T9S	2
T9Q	2.66
T9K	2.17
T9H	3.23
A16D	2.96
G7C	4.35
G7S	2.44
G7Q	2.28
G7L	2.54
G7T	2.51
G7H	2.92
G7P	5.18
G7R	2.02
G7D	3.39
G7M	1.99

Variant	protein stability index
G7I	4.42
G7Y	2.62
G7E	3.19
C4M	2.25
C4Q	3.17
C4G	3.37
C4W	4.22
C4N	3.76
C4E	2.83
C4Y	2.43
C4S	3.29
C4R	2.97
C4P	2.69
C4F	2.8
C4T	2.39
C4H	2.22
C4K	3.1
F13G	2.34
F13N	2.17
F13P	2.43
F13S	2.34
F13C	2.64
F13Q	3.46
F13I	4.07

Variant	protein stability index
F13K	4.12
F13V	2.83
F13E	1.84
F13T	2.07
A10I	1.8
A10G	2.08
A10C	4.03
A10Y	2.76
A10F	2.31
A10Q	2.09
A10S	1.82
A10T	2.48
A10K	2.31
A10W	2.06
A10D	1.51
A10L	4.17
A10N	3.19
E6C	1.95
E6N	3.63
E6Y	2.48
E6L	4.47
E6A	2.75
E6V	2.97
E6R	3.24

Variant	protein stability index
E6D	2.74
E6M	2.6
E6G	2.32
E6K	1.26
E6I	3.12
E6T	2.2
E6Q	1.76
E6F	1.87
H3V	2.98
H3K	3.35
H3N	3.58
H3Y	3.39
H3T	3.21
V8A	2.56
V8F	3.11
V8L	2.78
V8Y	2.2
V8C	3.33
V8Q	3.32
V8N	2.3
V8S	1.65
V8D	2.79
V8K	1.95
V8M	2.09

Variant	protein stability index
V8R	3.63
V8G	1.82
V8P	2.99
V8I	3.14
V15P	3.22
V15D	2.61
V15K	3.22
V15N	3.17
V15Y	3.25
V15T	2.03
V15C	3.06
V15H	3.01
V15M	1.77
V15I	3.06
V15Q	3.42
V15F	3.93
I12K	1.93
I12L	3.2
I12N	2.9
I12E	4.44
I12Q	1
I12F	3.41
I12S	2.84
I12W	2.95

Variant	protein stability index
I12T	1.79
I12H	1.71
I12R	5.41
I12Y	3.14
I12P	4.32
F5H	3.07
F5Q	2.79
F5A	3.47
F5T	2.87
F5D	2.6
F5N	2.79
F5I	3.65
F5M	2.91
F5P	3.42
F5S	2.75
F5C	1.78
F5K	2.11
I11T	1.61
I11M	3.01
I11H	3.5
I11S	4.32
I11V	3.49
I11D	3.47
I11Q	1.86

Variant	protein stability index
I11A	1.48
I11P	2.79
I11K	3.52
I11E	2.67
I11F	3.26
I11Y	3.17
I11N	3.83
I11C	3.28
C14R	4.07
C14T	4.02
C14I	3.89
C14P	2.46
C14H	2.66
C14N	2.56
C14G	2.52
C14Q	2.43
C14Y	3.37
C14A	1.32
C14S	3.26
C14M	1.93
C14D	4.12
C14L	1.8
C14F	3.23
